Measured values: patent US20240116985A1 (published 2024)
Starred links: 1 amine or outer side, 2 acyl side, 3 side chain; linkers in the order of their positions; H or OH if unused. Positions of bridges follow the written chain, without caps; N, C: chain ends. Non-standard residues stand in square brackets, D forms with d. Primed or numbered codes have the meaning given here. *: point of attachment. PyrS2″ = (S)-3-amino-1-((pent-4-en-1-yloxy)carbonyl)pyrrolidine-3-carboxylic acid (stapling residue), C=CCCCOC(=O)N1CC[C@@](N[*:1])(C(=O)[*:2])C1; B5(4) = 2,2-bis(4-pentenyl)glycine = 2-amino-2-(pent-4-en-1-yl)hept-6-enoic acid (stitching residue), C=CCCCC(CCCC=C)(N[*:1])C(=O)[*:2]; B5(21) = 2-amino-2-(pent-4-en-1-yl)hept-6-enoic acid, bis(4-pentenyl)glycine (stitching residue), C=CCCCC(CCCC=C)(N[*:1])C(=O)[*:2]; Phe(3-COOH) = N[C@@H](Cc1cccc(C(=O)O)c1)C(=O)O; Phe(2-CF3) = N[C@@H](Cc1ccccc1C(F)(F)F)C(=O)O; 2Nal = N[C@@H](Cc1ccc2ccccc2c1)C(=O)O; Bta = N[C@@H](Cc1csc2ccccc12)C(=O)O; Lys(iPr) = CC(C)NCCCC[C@H](N)C(=O)O; αAllylPro = C=CC[C@@]1(C(=O)O)CCCN1; tBuAla = CC(C)(C)C[C@H](N)C(=O)O; Cha = N[C@@H](CC1CCCCC1)C(=O)O; iPr = CC(C)*

T1: B-cat-Halo (beta-catenin HaloTag fusion expressed in HEK293 cells) (Homo sapiens (Human), UniProt P35222 1-781)
T1 sequence: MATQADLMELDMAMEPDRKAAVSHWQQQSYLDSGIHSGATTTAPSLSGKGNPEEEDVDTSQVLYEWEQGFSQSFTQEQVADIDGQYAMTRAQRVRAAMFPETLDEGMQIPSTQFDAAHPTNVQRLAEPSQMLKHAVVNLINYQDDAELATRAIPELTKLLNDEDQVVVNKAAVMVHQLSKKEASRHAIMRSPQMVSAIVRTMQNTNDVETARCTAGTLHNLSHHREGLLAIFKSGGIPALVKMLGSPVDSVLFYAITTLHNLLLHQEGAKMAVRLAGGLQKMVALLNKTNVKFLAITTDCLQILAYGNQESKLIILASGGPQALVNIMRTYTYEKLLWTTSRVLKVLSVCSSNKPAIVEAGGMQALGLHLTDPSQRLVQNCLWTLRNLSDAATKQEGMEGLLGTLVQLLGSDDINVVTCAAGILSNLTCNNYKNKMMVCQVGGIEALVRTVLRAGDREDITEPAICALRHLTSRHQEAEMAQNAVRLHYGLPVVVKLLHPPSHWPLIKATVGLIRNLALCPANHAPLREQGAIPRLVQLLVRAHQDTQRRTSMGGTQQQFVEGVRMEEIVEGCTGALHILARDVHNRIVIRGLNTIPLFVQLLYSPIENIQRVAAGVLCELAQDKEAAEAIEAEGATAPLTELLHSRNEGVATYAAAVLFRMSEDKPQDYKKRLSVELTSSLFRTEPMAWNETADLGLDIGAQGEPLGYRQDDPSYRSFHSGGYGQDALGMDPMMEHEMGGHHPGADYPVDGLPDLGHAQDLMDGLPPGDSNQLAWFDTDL

T2: full-length beta-Catenin (Uniprot ID P35222) (Homo sapiens (Human), UniProt P35222 2-781)
T2 construct: full-length beta-Catenin (Uniprot ID P35222); also called bCat; B-Catenin
T2 sequence: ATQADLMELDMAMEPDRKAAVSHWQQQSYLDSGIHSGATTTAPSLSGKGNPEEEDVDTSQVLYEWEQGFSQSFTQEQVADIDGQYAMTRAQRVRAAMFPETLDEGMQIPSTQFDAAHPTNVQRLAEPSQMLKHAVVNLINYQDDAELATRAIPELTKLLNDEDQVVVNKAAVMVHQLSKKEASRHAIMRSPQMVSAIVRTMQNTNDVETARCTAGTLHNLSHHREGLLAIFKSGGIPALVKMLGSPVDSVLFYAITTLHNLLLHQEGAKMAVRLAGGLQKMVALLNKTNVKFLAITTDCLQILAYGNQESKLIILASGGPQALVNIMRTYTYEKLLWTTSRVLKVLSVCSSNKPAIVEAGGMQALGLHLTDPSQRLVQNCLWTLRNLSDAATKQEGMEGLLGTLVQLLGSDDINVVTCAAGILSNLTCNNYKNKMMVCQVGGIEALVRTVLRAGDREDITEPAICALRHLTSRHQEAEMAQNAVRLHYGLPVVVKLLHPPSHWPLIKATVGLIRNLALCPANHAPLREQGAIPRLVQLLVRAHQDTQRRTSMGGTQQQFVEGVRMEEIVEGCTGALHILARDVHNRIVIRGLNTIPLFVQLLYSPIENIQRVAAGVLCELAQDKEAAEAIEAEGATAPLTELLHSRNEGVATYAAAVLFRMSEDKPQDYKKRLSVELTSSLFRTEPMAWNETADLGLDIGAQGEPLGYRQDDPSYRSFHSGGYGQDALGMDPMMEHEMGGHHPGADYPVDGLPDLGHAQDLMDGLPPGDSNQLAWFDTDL

B1: I-2448 (peptide)
peptide: Ac-[αAllylPro]N[Cha][B5(4)]DT[Lys(iPr)]AFL[PyrS2″]F[Bta]Q-NH2
modifications: staple 1-4, 4-11
B2: I-2456 (peptide)
peptide: Ac-[αAllylPro]D[tBuAla][B5(4)]D[Phe(3-COOH)]AAFL[PyrS2″][Phe(2-CF3)][SbMeBztA]Q-NH2
modifications: staple 1-4, 4-11
B3: I-2462 (peptide)
peptide: Ac-[αAllylPro]D[tBuAla][B5(4)]D[Phe(3-COOH)]AAFL[PyrS2″][Phe(2-CF3)][RbMe2NapA]Q-NH2
modifications: staple 1-4, 4-11
B4: I-2457 (peptide)
peptide: Ac-[αAllylPro]D[tBuAla][B5(4)]D[Phe(3-COOH)]QAFL[PyrS2″][Phe(2-CF3)][SbMeBztA]A-NH2
modifications: staple 1-4, 4-11
B5: I-1379 (peptide)
peptide: Ac-[αAllylPro]DA[B5(4)]NQ[Lys(iPr)]AFL[PyrS2″]F[Bta]Q-NH2
modifications: staple 1-4, 4-11
notes: also called Ac-PL3-Asp-Ala-B5-Asn-Gln-iPrLys-Ala-Phe-Leu-PyrS2-Phe-BztA-Gln-NH2
B6: I-1380 (peptide)
peptide: Ac-[αAllylPro]DA[B5(4)]NK[Lys(iPr)]AFL[PyrS2″]F[Bta]Q-NH2
modifications: staple 1-4, 4-11
notes: also called Ac-PL3-Asp-Ala-B5-Asn-Lys-iPrLys-Ala-Phe-Leu-PyrS2-Phe-BztA-Gln-NH2
B7: I-1387 (peptide)
peptide: Ac-[αAllylPro]NA[B5(21)]DTK(iPr)AFL[PyrS2″]F[2Nal]Q-NH2
modifications: staple 1-4, 4-11
notes: also called Ac-PL3-Asn-Ala-B5-Asp-Thr-iPrLys-Ala-Phe-Leu-PyrS2-Phe-2NapA-Gln-NH2
B8: I-1381 (peptide)
peptide: Ac-[αAllylPro]DA[B5(4)]NT[Lys(iPr)]AFL[PyrS2″]F[2Nal]Q-NH2
modifications: staple 1-4, 4-11
notes: also called Ac-PL3-Asp-Ala-B5-Asn-Thr-iPrLys-Ala-Phe-Leu-PyrS2-Phe-2NapA-Gln-NH2
B9: I-1382 (peptide)
peptide: Ac-[αAllylPro]NA[B5(4)]DT[Lys(iPr)]AFL[PyrS2″]F[Bta]Q-NH2
modifications: staple 1-4, 4-11
notes: also called Ac-PL3-Asn-Ala-B5-Asp-Thr-iPrLys-Ala-Phe-Leu-PyrS2-Phe-BztA-Gln-NH2
B10: I-1386 (peptide)
peptide: Ac-[αAllylPro]NA[B5(21)]DKK(iPr)AFL[PyrS2″]F[Bta]Q-NH2
modifications: staple 1-4, 4-11
notes: also called Ac-PL3-Asn-Ala-B5-Asp-Lys-iPrLys-Ala-Phe-Leu-PyrS2-Phe-BztA-Gln-NH2
B11: I-1384 (peptide)
peptide: Ac-[αAllylPro]NA[B5(4)]DT[Lys(iPr)]AFL[PyrS2″]F[Bta]T-NH2
modifications: staple 1-4, 4-11
notes: also called Ac-PL3-Asn-Ala-B5-Asp-Thr-iPrLys-Ala-Phe-Leu-PyrS2-Phe-BztA-Thr-NH2
B12: I-1383 (peptide)
peptide: Ac-[αAllylPro]NA[B5(4)]DT[Lys(iPr)]AFL[PyrS2″]F[Bta]K-NH2
modifications: staple 1-4, 4-11
notes: also called Ac-PL3-Asn-Ala-B5-Asp-Thr-iPrLys-Ala-Phe-Leu-PyrS2-Phe-BztA-Lys-NH2
B13: I-1385 (peptide)
peptide: Ac-[αAllylPro]NA[B5(21)]DQK(iPr)AFL[PyrS2″]F[Bta]Q-NH2
modifications: staple 1-4, 4-11
notes: also called Ac-PL3-Asn-Ala-B5-Asp-Gln-iPrLys-Ala-Phe-Leu-PyrS2-Phe-BztA-Gln-NH2

target: T1, B-cat-Halo (beta-catenin HaloTag fusion …); experiment: cell-based or functional assay

Compared with B1, B2 is lower in “NanoBRET Abs IC50” value: over 20 µM for the first, 8.1 µM for the second.

Going from B3 to B4, the “NanoBRET Abs IC50” value rises from 4.7 µM to 20.8 µM (4.4-fold).

target: T2, full-length beta-Catenin (Uniprot ID …); experiment: fluorescence polarization competition; full-length beta-catenin + 5FAM-TCF4 10-53 probe, peptide titrated
Procedure: The plate was incubated protected from light for 60 minutes at 20° C. prior to read. Reads were performed on a CLARIOstar plate reader (BMG Labtech) in duplicate, and data were fitted to a 1:1 binding model with hill slope using an in-house script. All provided concentrations are final concentrations.

Compared with B5, B6 is 6.9-fold higher in IC50: 1.44 µM for the first, 10 µM for the second. The first is the more potent here.

B7 and B8 are within 1.5-fold of each other in IC50: 6.94 µM for the first, 10 µM for the second.

B9 and B10 are within 1.5-fold of each other in IC50: 2.85 µM for the first, 2.25 µM for the second.

First: B11
Second: B12
The IC50 of the first is 6-fold higher: 10 µM for the first, 1.66 µM for the second.

With B13 the IC50 was 1.08 µM.
